We go through 1 molecule from US20030171551A1 (published 2003).

The target of the assay is T1, soluble extracellular domain of HER2/neu (ECD) (UniProt P04626 23-652, limits assumed).
T1 construct: extracellular domain; Immobilized on the IAsys microcuvette; also called soluble HER2/neu antigen
As to the kind of experiment: IAsys optical biosensor, HER2/neu ECD immobilized on the cuvette.

B1: RANTES.Her2.IgG3 (other)
chain: SPYSSDTTPCCFAYIARPLPRAHIKEYFYTSGKCSNPAVVFVTRKNRQVCANPEKKWVREYINSLEMS
Regarding B1, the Kd came to 53 nM.

As a reminder, the Kd is the concentration at which binding is half-saturated. Low readings indicate higher affinity, high ones lower affinity.
